Stoichiometry N data for one molecule are collected here from PMC3699067.

The target in this test is T1, DJ-1 (human (endogenous in HEK293T)), Q99497.
T1 chain: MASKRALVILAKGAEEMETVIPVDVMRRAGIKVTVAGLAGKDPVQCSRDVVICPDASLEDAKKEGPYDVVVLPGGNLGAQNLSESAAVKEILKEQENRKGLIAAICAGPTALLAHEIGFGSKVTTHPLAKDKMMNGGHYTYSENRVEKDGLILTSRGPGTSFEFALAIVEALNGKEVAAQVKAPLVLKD
The test is described as follows: cross-linking. Particulars: remark: other sources report otherwise.

B1: DJ-1, Q99497 1-189 (natural protein)
chain: T1 chain
The term stoichiometry N denotes the number of molecules, sites or subunits per partner or assembly. Take B1: the stoichiometry N was 2.
